Data from publication PMC11831497.

Columns and labels:
Settings in all cases: glycan lost; control: CTSD WT
[1] = immunofluorescence co-localisation with EEA1, Rab7, LAMP1, SW480
[2] = CTSD secretion from CRC cells
western blot = test: western blot
[3] = fluorogenic Cathepsin D activity kit, cell lysate
[4] = western blot at equal CTSD expression, SW480
[5] = cycloheximide chase, western blot

| Substance | localisation_or_trafficking [1] | expression_or_secretion [2] | other: ferroptosis protein levels (SLC7A11, GPX4) (western blot) | enzymatic_activity [3] | other: cellular level of substrate ACADM [4] | degradation_or_half_life [5] |
| --- | --- | --- | --- | --- | --- | --- |
| Cathepsin D (CTSD): N263Q | abolishes | decreases | decreases | decreases | increases | decreases |
| Cathepsin D (CTSD): N263Q/N134Q | abolishes | increases |  | decreases |  |  |
